# Measured values published in patent US6897049B1, “Proteins producing an altered immunogenic response and methods of making and using the same” (Genencor International, Inc., priority 1998, dated 2005).
# Numbering of substitutions follows the chain as printed. In names and notes the source's numbering stands.
# B1: proteinase K: Proteinase K from Tritirachium Album limber (protein, UniProt P06873 106-384, looked up)
# Proteinase K: AAQTNAPWGLARISSTSPGTSTYYYDESAGQGSCVYVIDTGIEASHPEFEGRAQMVKTYYYSSRDGNGHGTHCAGTVGSRTYGVAKKTQLFGVKVLDDNGSGQYSTIIAGMDFVASDKNNRNCPKGVVASLSLGGGYSSSVNSAAARLQSSGVMVAVAAGNNNADARNYSPASEPSVCTVGASDRYDRRSSFSNYGSVLDIFGPGTSILSTWIGGSTRSISGTSMATPHVAGLAAYLMTLGKTTAASACRYIADTANKGDLSNIPFGTVNLLAYNNYQA
# B2: Bacillus amyloliquefaciens subtilisin: Bacillus amyloliquefaciens subtilisin (BPN′), SEQ ID NO: 3 (protein)
# chain: AQSVPYGVSQIKAPALHSQGYTGSNVKVAVIDSGIDSSHPDLKVAGGASMVPSETNPFQDNNSHGTHVAGTVAALNNSIGVLGVAPSASLYAVKVLGADGSGQYSWIINGIEWAIANNMDVINMSLGGPSGSAALKAAVDKAVASGVVVVAAAGNEGTSGSSSTVGYPGKYPSVIAVGAVDSSNQRASFSSVGPELDVMAPGVSIQSTLPGNKYGAYNGTSMASPHVAGAAALILSKHPNWTNTQVRSSLENTTTKLGDSFYYGKGLINVQAAAQ
# B3: B. lentis subtilisin: subtilisin protease from Bacillus lentus (GG36), SEQ ID NO: 6 (protein)
# chain: AQSVPWGISRVQAPAAHNRGLTGSGVKVAVLDTGISTHPDLNIRGGASFVPGEPSTQDGNGHGTHVAGTIAALNNSIGVLGVAPSAELYAVKVLGASGSGSVSSIAQGLEWAGNNGMHVANLSLGSPSPSATLEQAVNSATSRGVLVVAASGNSGAGSISYPARYANAMAVGATDQNNNRASFSQYGAGLDIVAPGVNVQSTYPGSTYASLNGTSMATPHVAGAAALVKQKNPSWSNVQIRNHLKNTATSLGSTNLYGSGLVNAEAATR
# B4: FNA: BPN′ with a Y217L substitution; precursor of the variant (protein, UniProt P00782 108-382, looked up, variant Y217L)
# Subtilisin BPN': B2 chain with Y217L
# How the values were obtained:
# naïve human CD4+ T-cells = assay: T-cell proliferation assay with differentiated dendritic cells and naïve human CD4+ T-cells (tritium incorporation); type: cell-based; conditions: using the methods herein
# Procedure: Fresh human peripheral blood cells were collected from “naïve” humans, i.e., persons not known to be exposed to or sensitized to Bacillus lentus protease, for determination of antigenic epitopes in protease from Bacillus lentus and human subtilisin. Naïve humans is intended to mean that the individual is not known to have been exposed to or developed a reaction to protease in the past. Peripheral mononuclear blood cells (stored at room temperature, no older than 24 hours) were prepared for use as follows: Approximately 30 mls of a solution of buffy coat preparation from one unit of whole blood was brought to 50 ml with Dulbecco's phosphate buffered solution (DPBS) and split into two tubes. […] The cell density of the resultant solution was measured by hemocytometer. Viability was measured by trypan blue exclusion.
# From the resulting solution, a differentiated dendritic cell culture was prepared from the peripheral blood mononuclear cell sample having a density of 10^8 cells per 75 ml culture flask in a solution as follows: • (1) 50 ml of serum free AIM V media (Gibco) was supplemented with a 1:100 dilution beta-mercaptoethanol (Gibco). […] Adherent and non-adherent cells were then centrifuged at 600 G for 5 minutes, washed in DPBS and counted. • (4) The prepared dendritic cells were placed into a 96 well round bottom array at 2×10^4/well in 100 microliter total volume of AIM V media. […]
# guinea pig splenocytes = assay: T cell epitope mapping with splenocytes of immunized guinea pigs (thymidine incorporation); type: cell-based; conditions: guinea pigs immunized with 20 μg subtilisin; 15-mer peptides at 5 μM; >10 animals
# Procedure: B. lentis and B. amyloliquefaciens subtilisin T cell epitope mapping: Guinea pigs were immunized with 20 μg/immunization of subtilisin from either B. lentis or B. amyloliquefaciens. Animals were immunized subcutaneously in adjuvant every two weeks for 10 to 12 weeks. A single cell suspension of guinea pig splenocytes was created from each animal's spleen. Cells were plated at 5×10^5 splenocytes per well in round bottom 96 well plates. 15-mer peptides off-set by 3 amino acids were synthesized by Mimotopes. Peptides were resuspended to 1 mM in DMSO. Peptides were added to the cells at a final concentration of 5 μM. Cultures were incubated for 5 days at 37°, 5% CO2. Wells were pulsed with 0.5 μCi tritiated thymidine, and allowed to incubate for an additional 18 hours. Wells were harvested, and thymidine incorporation assessed.
# Hartley guinea pigs = assay: Guinea pig model of immunogenicity, antigen-specific IgG titers by direct ELISA; type: in vivo
# Procedure: Guinea pig immunizations: Adult female Hartley guinea pigs were immunized with various doses of B. amyloliquefaciens subtilisin and GP002. The doses were 1, 5, 10, and 20 μg/dose. There were four animals for each dose. Animals were immunized subcutaneously with enzyme in Complete Freund's Adjuvant for the first immunization. All subsequent immunizations were performed in Incomplete Freund's adjuvant. Animals were immunized, and a serum sample taken, every two weeks.
# ELISA: A direct ELISA was performed. Costart EIA plates were coated with 10 μg/ml of the immunizing enzyme in PBS overnight at 4° C. Plates were washed and blocked with 1% BSA in PBS. Serum samples were diluted in 1% BSA/PBS, and incubated on the enzymes coated plates for 1 hour. Serum samples were washed out, and biotinylated anti-guinea pig IgG was added at a 1:10,000 dilution in 1% BSA/PBS. The secondary reagent was incubated for 1 hour. The wells were washed, and avidin conjugated horse radish peroxidase was added to the wells at a 1:1000 dilution in 1% BSA/PBS. After 30 minutes, the substrate (ABTS) was added and the OD405 was read after 30 minutes.
# Calculation of titers: Background was subtracted from the OD readings, and the results plotted for each individual guinea pig. […] The titer value was calculated from the linear regression equation for an OD=0.5. […]
# [1] = tested on: HLA DR3/DQ2 transgenic mice; assay: Immunization of HLA-DR3/DQ2/C2D transgenic mice, antigen-specific IgG by direct ELISA; type: in vivo; conditions: 2 x 50 μg i.p.
# Procedure: Adult male HLA-DR31DQ2/C2D mice were immunized with 50 μg of FNA or FNA Variant emulsified in Complete Freund's Adjuvant. The immunization was administered intraperitoneally. Two weeks later, the mice received another intraperitoneal immunization of 50 μg FNA or the Variant emulsified in Incomplete Freund's Adjuvant. One week later, the mice were bled via the retro-orbital route, and the serum collected. Serum was assessed for antigen-specific IgG antibodies in a direct ELISA protocol. Briefly, 96 well flat-bottomed EIA plates were coated overnight with 10 μg/ml of denatured FNA. Plates were washed, blocked with 1% Fetal Calf Serum, and serum was titered out at 1:10 dilutions. The serum was washed out of the wells, and antigen-specific IgG was detected with horse radish peroxidase conjugated anti-mouse IgG. Results are presented as serum dilution versus average optical density (×1000) in Table 1 and FIG. 21.
molecule,measurement,setting,value
B1,immunogenic response compared with other commercially available proteases,naïve human CD4+ T-cells,lower immunogenic response
B2,T cell epitopes found,guinea pig splenocytes,none
same,immunogenicity in Hartley strain guinea pigs,Hartley guinea pigs,comparatively non-immunogenic
B3,T cell epitopes found,guinea pig splenocytes,Two
same,immunogenicity in Hartley strain guinea pigs,Hartley guinea pigs,highly immunogenic
B4,"average optical density (×1000), antigen-specific IgG",[1]; serum dilution 10,2937.5
same,"average optical density (×1000), antigen-specific IgG",[1]; serum dilution 100,2476
same,"average optical density (×1000), antigen-specific IgG",[1]; serum dilution 1000,1695
same,"average optical density (×1000), antigen-specific IgG",[1]; serum dilution 10000,641.5
same,"average optical density (×1000), antigen-specific IgG",[1]; serum dilution 100000,207
same,"average optical density (×1000), antigen-specific IgG",[1]; serum dilution 1000000,129.5
same,"average optical density (×1000), antigen-specific IgG",[1]; serum dilution 10000000,88.5
